Results from patent US8455205B2, “Metalloproteinase 9 binding proteins” (Dyax Corp., priority 2008, dated 2013).
Entries after “also recorded” stand apart in the source; their conditions may differ.

Columns and labels:
MMP-9 [1] = molecular target: T1, MMP-9 (Homo sapiens, UniProt P14780); assay: Affinity ranking of Fabs by BIACORE Flexchip (SPR); type: binding
From the text: Surface Plasmon Resonance (SPR). The interaction of binding protein and a target can be analyzed using SPR. SPR or Biomolecular Interaction Analysis (BIA) detects biospecific interactions in real time, without labeling any of the interactants. Changes in the mass at the binding surface (indicative of a binding event) of the BIA chip result in alterations of the refractive index of light near the surface (the optical phenomenon of surface plasmon resonance (SPR)). The changes in the refractivity generate a detectable signal, which are measured as an indication of real-time reactions between biological molecules. Methods for using SPR are described, for example, in U.S. Pat. No. 5,641,640; Raether, 1988, Surface Plasmons Springer Verlag; Sjolander and Urbaniczky, 1991, Anal. Chem. 63:2338-2345; Szabo et al., 1995, Curr. Opin. Struct. Biol. 5:699-705 and on-line resources provide by BIAcore International AB (Uppsala, Sweden). BIAcore Flexchip can be used to compare and rank interactions in real time, in terms of kinetics, affinity or specificity without the use of labels.
Information from SPR can be used to provide an accurate and quantitative measure of the equilibrium dissociation constant (Kd), and kinetic parameters, including Kon and Koff, for the binding of a binding protein to a target. Such data can be used to compare different biomolecules. For example, selected proteins from an expression library can be compared to identify proteins that have high affinity for the target or that have a slow Koff. This information can also be used to develop structure-activity relationships (SAR). For example, the kinetic and equilibrium binding parameters of matured versions of a parent protein can be compared to the parameters of the parent protein. Variant amino acids at given positions can be identified that correlate with particular binding parameters, e.g., high affinity and slow Koff. This information can be combined with structural modeling (e.g., using homology modeling, energy minimization, or structure determination by x-ray crystallography or NMR). […]
Target sequence in this assay (P14780 94-707): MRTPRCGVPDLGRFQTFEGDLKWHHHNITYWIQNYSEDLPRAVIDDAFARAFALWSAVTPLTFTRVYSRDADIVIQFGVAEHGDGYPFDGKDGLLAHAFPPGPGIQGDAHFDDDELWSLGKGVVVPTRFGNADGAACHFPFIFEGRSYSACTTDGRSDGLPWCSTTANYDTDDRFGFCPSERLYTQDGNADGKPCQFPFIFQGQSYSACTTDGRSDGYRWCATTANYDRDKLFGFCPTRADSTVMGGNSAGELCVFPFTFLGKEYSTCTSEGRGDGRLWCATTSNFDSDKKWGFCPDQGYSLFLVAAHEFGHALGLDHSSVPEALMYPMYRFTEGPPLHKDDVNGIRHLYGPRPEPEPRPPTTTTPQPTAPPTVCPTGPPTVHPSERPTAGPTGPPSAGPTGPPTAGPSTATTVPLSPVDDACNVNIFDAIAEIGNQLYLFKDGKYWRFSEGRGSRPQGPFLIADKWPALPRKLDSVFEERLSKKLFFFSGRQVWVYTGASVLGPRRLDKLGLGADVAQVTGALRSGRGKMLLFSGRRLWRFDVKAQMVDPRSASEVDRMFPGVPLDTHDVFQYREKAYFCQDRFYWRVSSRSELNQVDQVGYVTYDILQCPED

MMP-9 [2] = molecular target: T1, MMP-9; assay: Inhibition of human MMP-9 activity, fluorogenic peptide substrate (IC50 / residual activity at 1 μM antibody); type: biochemical; design: Human MMP-9 catalytic domain (BIOMOL, SE-244); purchased BIOMOL SE-244
Method: MMP-9 binding proteins can be characterized in assays that measure their modulatory activity toward MMP-9 or fragments thereof in vitro or in vivo. For example, MMP-9 can be combined with a substrate such as Mca-Pro-Leu-Ala-Cys(Mob)-Trp-Ala-Arg-Dap(Dnp)-NH2 (SEQ ID NO: 12) under assay conditions permitting cleavage by MMP-9. The assay is performed in the absence of the MMP-9 binding protein, and in the presence of increasing concentrations of the MMP-9 binding protein. The concentration of binding protein at which 50% of the MMP-9 activity (e.g., binding to the substrate) is inhibited is the IC50 value (Inhibitory Concentration 50%) or EC50 (Effective Concentration 50%) value for that binding protein.
(§1) After sequencing analysis, the phage display were converted into sFabs and then into IgG1s. Their ability to inhibit MMP-9 and other MMPs (1, 3, 7, 8, 9, 10, 12, 13, 14) was determined by usual means. Compounds were initially screened at 1 μM against MMP-9 and those compounds that inhibited MMP-9>80% were subjected to additional screens against purified recombinant human MMPs. For these additional screens, an IC50 value was determined.
The human MMP-1, -2, -3, -7, -8, -9, -10, -12, -13, and -14 were obtained from BIOMOL (Human MMP-9: SE-244, BIOMOL; Human MMP-14: SE-259, BIOMOL; Human MMP-1, -2, -8, -13: MMP MultiPack-1 from BIOMOL; Human MMP-3, -7, -10, -12: MMP MultiPack-2 from BIOMOL). […]
Target sequence in this assay (P14780 107-444 limits assumed): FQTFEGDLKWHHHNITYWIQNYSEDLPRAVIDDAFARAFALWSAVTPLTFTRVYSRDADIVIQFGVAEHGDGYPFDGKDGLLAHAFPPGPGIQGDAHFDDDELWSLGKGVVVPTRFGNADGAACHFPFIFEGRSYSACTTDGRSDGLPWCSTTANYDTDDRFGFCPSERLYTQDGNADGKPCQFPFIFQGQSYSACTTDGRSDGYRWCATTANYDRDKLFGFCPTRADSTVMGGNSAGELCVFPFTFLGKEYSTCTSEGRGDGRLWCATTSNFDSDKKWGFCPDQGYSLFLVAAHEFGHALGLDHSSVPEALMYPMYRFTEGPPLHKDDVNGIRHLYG

human MMP-2 = molecular target: T2, human MMP-2 (Homo sapiens, UniProt P08253); assay: MMP selectivity panel, residual enzyme activity; type: biochemical; conditions: FIG. 5
T2 construct: purchased BIOMOL MMP MultiPack-1
T2 sequence (P08253 110-660): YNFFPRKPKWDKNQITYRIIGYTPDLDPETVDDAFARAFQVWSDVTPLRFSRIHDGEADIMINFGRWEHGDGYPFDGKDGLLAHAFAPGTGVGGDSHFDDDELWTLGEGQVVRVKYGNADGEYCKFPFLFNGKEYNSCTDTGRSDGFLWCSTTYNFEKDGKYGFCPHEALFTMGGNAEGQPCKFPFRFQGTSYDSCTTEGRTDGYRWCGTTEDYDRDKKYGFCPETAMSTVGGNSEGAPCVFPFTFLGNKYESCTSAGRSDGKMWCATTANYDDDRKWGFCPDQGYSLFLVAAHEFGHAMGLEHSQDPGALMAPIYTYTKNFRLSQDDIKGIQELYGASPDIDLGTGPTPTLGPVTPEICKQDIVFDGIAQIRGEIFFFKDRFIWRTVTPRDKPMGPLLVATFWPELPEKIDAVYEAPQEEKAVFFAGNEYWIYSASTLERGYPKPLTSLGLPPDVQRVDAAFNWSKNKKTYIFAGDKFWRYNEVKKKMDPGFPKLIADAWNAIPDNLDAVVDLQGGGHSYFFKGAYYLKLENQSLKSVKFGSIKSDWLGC
From the text: (§2) The human MMP-1, -2, -3, -7, -8, -9, -10, -12, -13, and -14 were obtained from BIOMOL (Human MMP-9: SE-244, BIOMOL; Human MMP-14: SE-259, BIOMOL; Human MMP-1, -2, -8, -13: MMP MultiPack-1 from BIOMOL; Human MMP-3, -7, -10, -12: MMP MultiPack-2 from BIOMOL). The mouse MMP-2 and -9 were from R&D (Mouse MMP-9: 909-MM, R&D Mouse MMP-2: 924-MP, R&D). The substrate was Mca-Pro-Lys-Pro-Leu-Ala-Leu-Dap(Dnp)-Ala-Arg-NH2 (SEQ ID NO: 951)(M-2225, Bachem) for human MMP-3, and Mca-Lys-Pro-Leu-Gly-Leu-Dap(Dnp)-Ala-Arg-NH2 (SEQ ID NO: 952)(M-2350, Bachem) for all the other enzymes. The substrate concentration in the assay was 10 μM.

human MMP-3 = molecular target: T3, human MMP-3 (Homo sapiens, UniProt P08254); assay: MMP selectivity panel, residual enzyme activity; type: biochemical; conditions: FIG. 5
T3 construct: purchased BIOMOL MMP MultiPack-2
Method: as §1, §2

human MMP-8 = molecular target: T4, human MMP-8 (Homo sapiens, UniProt P22894); assay: MMP selectivity panel, residual enzyme activity; type: biochemical; conditions: FIG. 5
T4 construct: purchased BIOMOL MMP MultiPack-1
Method: as §1, §2

human MMP-14 = molecular target: T5, human MMP-14 (Homo sapiens, UniProt P50281); assay: MMP selectivity panel, residual enzyme activity; type: biochemical; conditions: FIG. 5
T5 construct: purchased BIOMOL SE-259
Method: as §1, §2

human MMP-12 = molecular target: T6, human MMP-12 (Homo sapiens, UniProt P39900); assay: MMP selectivity panel, residual enzyme activity; type: biochemical; conditions: FIG. 5
T6 construct: purchased BIOMOL MMP MultiPack-2
Method: as §1, §2

mouse MMP-9 = molecular target: T7, mouse MMP-9 (Mus musculus, UniProt P41245); assay: Inhibition of mouse MMP-9 activity, fluorogenic substrate; type: biochemical
T7 construct: purchased R&D 909-MM
From the text: as §2

T7 sequence (P41245 108-730): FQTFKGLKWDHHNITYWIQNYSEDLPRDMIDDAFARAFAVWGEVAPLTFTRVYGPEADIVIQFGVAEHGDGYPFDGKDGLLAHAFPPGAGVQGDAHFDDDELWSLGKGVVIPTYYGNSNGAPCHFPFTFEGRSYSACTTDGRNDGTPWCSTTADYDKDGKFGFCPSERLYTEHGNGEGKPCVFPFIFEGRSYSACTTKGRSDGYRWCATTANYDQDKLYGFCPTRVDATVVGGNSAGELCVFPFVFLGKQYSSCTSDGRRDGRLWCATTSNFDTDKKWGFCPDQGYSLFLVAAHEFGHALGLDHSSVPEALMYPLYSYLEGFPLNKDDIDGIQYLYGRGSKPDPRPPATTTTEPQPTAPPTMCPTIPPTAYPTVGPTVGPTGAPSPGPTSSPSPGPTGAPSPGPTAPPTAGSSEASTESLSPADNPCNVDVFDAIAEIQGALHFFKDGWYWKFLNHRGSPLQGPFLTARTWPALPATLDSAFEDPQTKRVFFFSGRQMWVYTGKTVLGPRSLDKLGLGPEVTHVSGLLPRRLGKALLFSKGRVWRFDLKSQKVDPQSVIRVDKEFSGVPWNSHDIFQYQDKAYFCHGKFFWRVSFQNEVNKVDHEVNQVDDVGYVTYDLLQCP
T3 sequence (P08254 100-477): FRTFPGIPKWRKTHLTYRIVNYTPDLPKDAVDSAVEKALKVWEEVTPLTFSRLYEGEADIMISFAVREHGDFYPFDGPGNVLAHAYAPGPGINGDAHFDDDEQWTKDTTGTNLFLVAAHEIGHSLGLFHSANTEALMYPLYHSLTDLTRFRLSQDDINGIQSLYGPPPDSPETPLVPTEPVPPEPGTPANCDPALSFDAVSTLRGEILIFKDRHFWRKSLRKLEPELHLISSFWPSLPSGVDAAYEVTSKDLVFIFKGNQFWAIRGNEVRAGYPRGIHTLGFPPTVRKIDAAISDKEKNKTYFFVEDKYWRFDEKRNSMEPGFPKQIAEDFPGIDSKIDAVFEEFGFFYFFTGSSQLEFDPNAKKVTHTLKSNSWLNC
T4 sequence (P22894 101-467): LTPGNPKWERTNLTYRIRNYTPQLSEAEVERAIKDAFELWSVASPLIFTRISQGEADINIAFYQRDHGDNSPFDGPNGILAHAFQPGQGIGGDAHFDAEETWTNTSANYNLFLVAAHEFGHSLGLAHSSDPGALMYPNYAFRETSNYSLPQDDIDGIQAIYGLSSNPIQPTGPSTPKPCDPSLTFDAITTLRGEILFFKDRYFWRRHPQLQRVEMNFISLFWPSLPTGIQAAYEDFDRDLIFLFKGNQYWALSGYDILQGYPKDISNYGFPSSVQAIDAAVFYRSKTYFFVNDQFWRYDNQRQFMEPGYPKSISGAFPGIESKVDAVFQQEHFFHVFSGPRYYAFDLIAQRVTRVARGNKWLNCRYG
T6 sequence (P39900 106-470): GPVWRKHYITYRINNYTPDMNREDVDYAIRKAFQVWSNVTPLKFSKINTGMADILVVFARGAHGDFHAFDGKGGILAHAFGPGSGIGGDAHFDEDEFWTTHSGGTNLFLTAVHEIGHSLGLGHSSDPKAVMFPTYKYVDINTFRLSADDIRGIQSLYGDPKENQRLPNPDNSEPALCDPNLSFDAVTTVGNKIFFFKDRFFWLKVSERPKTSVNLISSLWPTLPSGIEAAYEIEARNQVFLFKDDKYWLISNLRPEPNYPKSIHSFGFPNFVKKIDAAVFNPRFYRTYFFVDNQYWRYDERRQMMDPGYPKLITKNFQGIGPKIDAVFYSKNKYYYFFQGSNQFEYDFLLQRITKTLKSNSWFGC

Molecule	Difference from reference (MMP-9 [1]; Flexchip spot signal, Fabs from the R0017 plate)	ka (MMP-9 [1]; Flexchip, Fabs)	kd (MMP-9 [1]; Flexchip, Fabs)	Inhibition of human MMP-9 activity (in words) (MMP-9 [2]; FIG. 5 / Example 12)	Selectivity for MMP-9 versus other MMPs tested (MMP-9 [2]; compared to the other human and murine MMPs tested)	Inhibition of human MMP-2 (in words) (human MMP-2)	Inhibition of human MMP-3 (in words) (human MMP-3)	Inhibition of human MMP-8 (in words) (human MMP-8)	Inhibition of human MMP-14 (in words) (human MMP-14)	Inhibition of human MMP-12 (in words) (human MMP-12)	Inhibition of mouse MMP-9 activity (in words) (mouse MMP-9)
TIMP-1: endogenous MMP inhibitor, control spot on Flexchip	845.8099	No Binding *	No Binding *	–	–	–	–	–	–	–	–
539A-M0240-B03: Parental isolate (sFab; IgG); h/mMMP-9 antibody inhibitor (antibody, V domains shown) VL: QYELTQPRSVSGSPGQSVTISCTGTSSDVGGYNYVSWYQQHPGKAPKLMIYDVSKRPSGVPDRFSGSKSGNTASLTISGLQAEDEADYYCCSYAGSYTLVFGGGTKLTVL VH: EVQLLESGGGLVQPGGSLRLSCAASGFTFSTYQMVWVRQAPGKGLEWVSVIYPSGGPTVYADSVKGRFTISRDNSKNTLYLQMNSLRAEDTAVYYCARGEDYYDSSGPGAFDIWGQGTMVTVSS	–	–	–	inhibits; also recorded: decrease or inhibit	selective inhibitor of MMP-9	not	not	not	not	not	inhibits; also recorded: decrease or inhibit
